Earlier results in PMC11638072.

Target: Trigger factor (Escherichia coli) (UniProt P0A850)

Sequence of Trigger factor (P0A850 whole entry): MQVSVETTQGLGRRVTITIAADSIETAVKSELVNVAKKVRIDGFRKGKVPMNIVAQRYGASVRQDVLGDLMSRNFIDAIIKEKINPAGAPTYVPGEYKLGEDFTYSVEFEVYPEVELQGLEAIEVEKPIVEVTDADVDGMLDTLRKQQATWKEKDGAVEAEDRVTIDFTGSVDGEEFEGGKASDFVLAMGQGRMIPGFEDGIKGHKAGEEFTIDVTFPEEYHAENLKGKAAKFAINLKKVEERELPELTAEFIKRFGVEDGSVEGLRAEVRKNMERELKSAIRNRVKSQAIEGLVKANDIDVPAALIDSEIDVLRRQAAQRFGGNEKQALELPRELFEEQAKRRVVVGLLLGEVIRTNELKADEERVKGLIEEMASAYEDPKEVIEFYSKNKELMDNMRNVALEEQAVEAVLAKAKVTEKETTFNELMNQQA

Trigger factor (from UniProt P0A850)
Kd: 1 µM
